Experimental data published in the supplement of paper PMC10724198.
± gives the standard deviation of the averaged measurements.

Tested on: Saccharomyces cerevisiae
Assay: protein stability index of tFT-peptide fusion (C-terminal peptide) (PSI (0-1 scale)); higher = more stable (slower turnover)
Conditions: genetic background: wild type; temperature: 30 C
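Note: PSI is a weighted mean of sequencing reads over stability bins, variants kept only with over 10 reads, mCherry proximal and sfGFP distal, peptide attached via GGGS linker.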

TSSASVCASSVQ
protein stability index: 0.588 ± 0.023

RRVPVVSRAGGG
protein stability index: 0.697 ± 0.067

LKPGYQGQHKED
protein stability index: 0.7 ± 0.029

GFAAPSRPACLP
protein stability index: 0.696 ± 0.017

GPRPHVLPLAYF
protein stability index: 0.675 ± 0.024

LFLPPLFRRSPF
protein stability index: 0.684 ± 0.018

HMCPWVWPVRDQ
protein stability index: 0.691 ± 0.024

SSAPPPPPRPLP
protein stability index: 0.588 ± 0.052

PSLPPHPPSPLP
protein stability index: 0.742 ± 0.053

SYDNPPDTSRPR
protein stability index: 0.768 ± 0.046

IIRKTKSKQEMI
protein stability index: 0.706 ± 0.039

FFDPPPSLSALI
protein stability index: 0.7724 ± 0.0037

CSLFRCSKVVLG
protein stability index: 0.672 ± 0.037

VVWSWCWEYAAV
protein stability index: 0.625 ± 0.013

RVDGDFDYPRVV
protein stability index: 0.82 ± 0.11

FRLKRFSGTGYG
protein stability index: 0.698 ± 0.035

FAPCSPKAVFCS
protein stability index: 0.589 ± 0.037

GYPASGVLIVFF
protein stability index: 0.512 ± 0.026

PSHLPRARRPPR
protein stability index: 0.686 ± 0.011

AQPIPTLYRAPP
protein stability index: 0.729 ± 0.049

SEGLFSVLYIWM
protein stability index: 0.687 ± 0.16

LPFPPPIIATPP
protein stability index: 0.665 ± 0.13

RPFSSPSPSLPA
protein stability index: 0.743 ± 0.071

HLLCPLSPYICH
protein stability index: 0.681 ± 0.02

PYPPPPALPSSF
protein stability index: 0.667 ± 0.032

RPRELHNSETVY
protein stability index: 0.683 ± 0.025

IGTRHIKILGRY
protein stability index: 0.698 ± 0.047

SPTDSDINIPRV
protein stability index: 0.714 ± 0.05

PPVRPRPDPACR
protein stability index: 0.727 ± 0.031

AEGKGRCRRSCW
protein stability index: 0.693 ± 0.072

RPQNDRKMRKVE
protein stability index: 0.621 ± 0.059

GVSPSPPSPPPH
protein stability index: 0.741 ± 0.062

CFFVRLSSFYCS
protein stability index: 0.63 ± 0.0089

QGKRRREDGIGG
protein stability index: 0.711 ± 0.072

RPRVDLCDINPE
protein stability index: 0.692 ± 0.021

WAASGGAARYAP
protein stability index: 0.684 ± 0.037

PPPIYTPPPPPL
protein stability index: 0.697 ± 0.053

PPPPPLSSPPSP
protein stability index: 0.652 ± 0.049

CAQLVLDNHTGP
protein stability index: 0.69 ± 0.079

FSHLRASFADAA
protein stability index: 0.687 ± 0.045

SAPPDVAPLFSP
protein stability index: 0.74 ± 0.053

WAGGRHCKGVVV
protein stability index: 0.681 ± 0.13

STVFAICQVLPI
protein stability index: 0.6592 ± 0.0021

SLTGYAGESIRF
protein stability index: 0.774 ± 0.056

VFFDLALRWYGV
protein stability index: 0.748 ± 0.082

TPTSPPLPLTIS
protein stability index: 0.579 ± 0.016

VSLGHGYVFRRV
protein stability index: 0.6921 ± 0.0058

CRGGPLGYGCGS
protein stability index: 0.827 ± 0.17

CFASTFVSPILH
protein stability index: 0.694 ± 0.03

WLWYLSTRHSKL
protein stability index: 0.7871 ± 0.0037

SPPPGHPPLVPN
protein stability index: 0.767 ± 0.013

GRRMGHQLGAGA
protein stability index: 0.684 ± 0.039

KRYKSYEDKNVM
protein stability index: 0.696 ± 0.033

VYEGIQEKTTRQ
protein stability index: 0.5754 ± 0.0057

KFLISIWGGTRG
protein stability index: 0.6118 ± 0.0025

FAWYSFYSPPPR
protein stability index: 0.667 ± 0.0048

GRPYCISASPPH
protein stability index: 0.706 ± 0.0075

WGRNRGASDPNL
protein stability index: 0.7198 ± 0.0046

LLFLGSSLRDTF
protein stability index: 0.759 ± 0.0098

SSPPPHPPPVPR
protein stability index: 0.688 ± 0.1

FAAKASVLRMRR
protein stability index: 0.605 ± 0.029

EKKKKKTAKQLK
protein stability index: 0.671 ± 0.085

FWGGRGGVGLAV
protein stability index: 0.601 ± 0.1

SGCVARTRGLSG
protein stability index: 0.62 ± 0.018

GYCGRGCWGVGC
protein stability index: 0.7093 ± 0.0056

YYSTQTQATYRH
protein stability index: 0.6773 ± 0.0025

AQRNSPIVLAVL
protein stability index: 0.527 ± 0.0063

SSFPPAPHAPHD
protein stability index: 0.739 ± 0.03

LRHVARCARGGA
protein stability index: 0.647 ± 0.095

FLRGRTPLTAGD
protein stability index: 0.582 ± 0.022

EIIEINNVKRIK
protein stability index: 0.6835 ± 0.0049

EKRDEGAGKGEQ
protein stability index: 0.63 ± 0.014

LLGSFSLSMSSL
protein stability index: 0.717 ± 0.021

LPPLAPASHHLC
protein stability index: 0.493 ± 0.016

GGSGGRDGLCVG
protein stability index: 0.738 ± 0.049

RLIPYPPPLSLP
protein stability index: 0.724 ± 0.021

GGFARGRDGWQL
protein stability index: 0.712 ± 0.0013

VVSLGLGGFVVR
protein stability index: 0.719 ± 0.033

PPIFPSPPPPAD
protein stability index: 0.61 ± 0.011

EQQLSHENMQFK
protein stability index: 0.68 ± 0.01

LGVVSCAVVGFV
protein stability index: 0.625 ± 0.041

QRGGVGWILGGV
protein stability index: 0.675 ± 0.034

RRHHSVSPLPFL
protein stability index: 0.709 ± 0.0099

ELTLTVFQVGEE
protein stability index: 0.602 ± 0.025

SYLHALSRPSLL
protein stability index: 0.734 ± 0.03

VVTGVRFGVGSI
protein stability index: 0.697 ± 0.039

IKKSMKSLTRTE
protein stability index: 0.735 ± 0.015

SMNCTSLRPGSF
protein stability index: 0.7065 ± 0.0015

SRYRPTGAHYGH
protein stability index: 0.714 ± 0.064

RWVNNKKTKGQD
protein stability index: 0.767 ± 0.042

YALPPPPHPLSF
protein stability index: 0.591 ± 0.018

AGLACWGGVGER
protein stability index: 0.693 ± 0.0079

SEDLSNNMKQDI
protein stability index: 0.688 ± 0.026

RNKLEKKIYKRS
protein stability index: 0.672 ± 0.014

FWRPIPQSPLPQ
protein stability index: 0.7203 ± 0.002

LPCRRPTPPFPQ
protein stability index: 0.752 ± 0.024

QKNKKRQTTYES
protein stability index: 0.662 ± 0.0069

LGGLLLCLGLSG
protein stability index: 0.674 ± 0.058

APPPPPVPLPPP
protein stability index: 0.722 ± 0.024

KTKNTQRKTEEN
protein stability index: 0.653 ± 0.047

DERVSAQDFLEG
protein stability index: 0.6873 ± 0.003

ESKCADNKMKRK
protein stability index: 0.652 ± 0.022

VRFPCGFCKKLS
protein stability index: 0.637 ± 0.036

PTPLSRPPTNAA
protein stability index: 0.634 ± 0.042

INKKKKEKKKVE
protein stability index: 0.731 ± 0.023

LLLLRSPPPTPP
protein stability index: 0.6722 ± 0.0021

PVVDVRFSFRCL
protein stability index: 0.644 ± 0.038

GPFRGRCFPFCI
protein stability index: 0.667 ± 0.037

SPARLPPLPSLS
protein stability index: 0.734 ± 0.038

YGVRGFKGYYGG
protein stability index: 0.735 ± 0.0087

LSPVRRAPCPLG
protein stability index: 0.6905 ± 0.0019

VSFGFHKWCHSR
protein stability index: 0.638 ± 0.015

HINVAVAKYSRQ
protein stability index: 0.697 ± 0.047

PHWGKRINEAHT
protein stability index: 0.6851 ± 0.0029

AVARYPPHCSHN
protein stability index: 0.768 ± 0.13

DHGRLFSNILIS
protein stability index: 0.645 ± 0.028

GPGTYGASLSGR
protein stability index: 0.65 ± 0.053

CRKIKFIQKINK
protein stability index: 0.623 ± 0.046

SQFLRPSAVAPS
protein stability index: 0.642 ± 0.037

SAPILPPQSSSP
protein stability index: 0.749 ± 0.035

LPPPLPVRSPLF
protein stability index: 0.68 ± 0.012
